# Assay results: article PMC7044312, “NMT1 and NMT2 are lysine myristoyltransferases regulating the ARF6 GTPase cycle” (Nature Communications, 2020)
# No end group written: not given here.
# T1: NMT1 (115–496), NMT catalytic domain (human, UniProt P30419 115-496)
# T1 construct: human N-myristoyltransferase 1, catalytic domain, residues 115-496; Crystallised with myristoyl-CoA; also called N-myristoyltransferase 1; source: E. coli BL21, purified (Ni-NTA, PreScission cleavage, Superdex 75)
# T1 sequence (looked up): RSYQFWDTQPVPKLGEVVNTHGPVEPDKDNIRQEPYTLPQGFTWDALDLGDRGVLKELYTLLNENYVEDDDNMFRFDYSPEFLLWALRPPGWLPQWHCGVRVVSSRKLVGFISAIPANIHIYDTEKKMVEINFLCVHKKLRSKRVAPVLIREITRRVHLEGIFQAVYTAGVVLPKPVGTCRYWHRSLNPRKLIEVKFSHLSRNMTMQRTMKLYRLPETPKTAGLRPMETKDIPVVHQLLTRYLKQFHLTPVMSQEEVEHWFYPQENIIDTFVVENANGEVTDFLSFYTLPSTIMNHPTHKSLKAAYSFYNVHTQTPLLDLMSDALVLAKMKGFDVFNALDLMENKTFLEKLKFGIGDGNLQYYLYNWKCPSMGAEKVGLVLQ
# Biological target: T1, NMT1 (115–496), NMT catalytic domain
# Assay: crystal structure; NMT1 7.5 mg/ml in 25 mM Tris-HCl pH 7.5, 120 mM NaCl, with 0.3 mM myristoyl-CoA and 0.3 mM AcKVLSKIF; well 18% PEG 8000, 100 mM NaCl, 100 mM sodium citrate pH 5.6, 100 mM MgCl2
# Details: both partners purified
binder,measurement,value
"Ac-KVLSKIF (also: myristoyl on Lys3 side chain (residue 3 is L), formed in crystal, derived from the N-terminus of ARF6, G2 deleted; also called acetyl-KVLSKIF; myristoyl-AcKVLSKIF; source: synthetic peptide (synthesized in-house)) [Ac-KVLSKIF peptide]",binding result,binds
